Molecular target: STAT3 (127-711)-His6 I568F (HIES mutant) (human) (UniProt P40763)
Assay: ITC

Chain of STAT3 (127-711)-His6 I568F (HIES mutant) (human) (P40763 127-711 I568F): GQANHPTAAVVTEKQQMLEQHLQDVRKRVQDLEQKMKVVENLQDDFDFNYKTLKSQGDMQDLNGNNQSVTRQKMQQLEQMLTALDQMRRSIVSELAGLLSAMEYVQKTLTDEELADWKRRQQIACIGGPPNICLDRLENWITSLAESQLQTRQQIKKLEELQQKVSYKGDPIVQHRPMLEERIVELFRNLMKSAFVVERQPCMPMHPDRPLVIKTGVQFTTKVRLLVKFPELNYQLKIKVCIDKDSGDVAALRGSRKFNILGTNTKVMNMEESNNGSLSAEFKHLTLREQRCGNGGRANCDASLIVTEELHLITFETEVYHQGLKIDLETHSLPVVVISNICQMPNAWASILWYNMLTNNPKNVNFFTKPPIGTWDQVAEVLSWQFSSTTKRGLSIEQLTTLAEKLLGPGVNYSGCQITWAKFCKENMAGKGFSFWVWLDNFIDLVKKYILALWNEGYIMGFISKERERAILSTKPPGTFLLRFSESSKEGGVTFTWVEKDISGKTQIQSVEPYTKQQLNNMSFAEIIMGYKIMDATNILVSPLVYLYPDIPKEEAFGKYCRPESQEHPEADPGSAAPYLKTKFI

fold reduction in binding affinity against WT STAT3: 5 fold
Substance: phosphotyrosine peptide derived from gp130 (pY904)

Reference: paper PMC4767637
